The chains are these.
B1: HDV Ribozyme (parent)
chain: GGCCGGCAUGGUCCCAGCCUCCUCGCUGGCGCCGGCUGGGCAACAUUCCGAGGGGACCGUCCCCUCGGUAAUGGCGAAUGGGACCCA

In the data set the parent is B1. Kind of data set: self-cleavage, relative activity (ratio to wild type); higher = more cleavage; co-transcriptional.
As to GGCUGCCAUGGUCCCAGCCUCCUCGCUGGCGCCGGCUGGGCAACAUUCCGAGGGGACCGUCCCCUCGGUAAUGGCGAAUGGGACCCA, the self-cleavage was determined as 0.
The result for GGCGGGCAUGGUCCCAGCCUCCUCUCUGGCGCCGGCUGGGCAACAUUCCGAGGGGACCGUCCCCUCGGUAAUGGCGAAUGGGACCCA reads 0.109; that for GGCUGGCAUGGUCCCAGCCUCCUCGCUGGCGCCGGCUGGGCAACAUUCCGAGGGGACCGUCCCCUCGGUAAUGGCGUAUGGGACCCA, 0.415; that for GGCGGGCAAGGUCCCAGCCUCCUCGCUGGCGCCGGCUGGGCAACAUUCCGAGGGGACCGUCCCCUCGGUAAUGGCGAAUGGGACCCA, 0.534.
In the case of GGCUGGCAUGGUCCCAGCCUCCUCGCUGGCGCCGGCUGGGCAACAUUCCGAGGGGACCGUCCCCUGGGUAAUGGCGAAUGGGACCCA, the self-cleavage came to 0.875.
The result for GGCGGGCAUGGUCCCAGCCUCCUCGCUGGCCCCGGCUGGGCAACAUUCCGAGGGGACCGUCCCCUCGGUAAUGGCGAAUGGGACCCA reads 0.108.
The result for GGCUGGCAUGGUACCAGCCUCCUCGCUGGCGCCGGCUGGGCAACAUUCCGAGGGGACCGUCCCCUCGGUAAUGGCGAAUGGGACCCA reads 0.122.
Regarding GGCUGGCAUGGUCCCAGCCUCCUCGCUGGCGCCGGCUGGGCAACAUUCCGAGGGGACCGUCCACUCGGUAAUGGCGAAUGGGACCCA, the self-cleavage was 0.95.
As for GGCUGGUAUGGUCCCAGCCUCCUCGCUGGCGCCGGCUGGGCAACAUUCCGAGGGGACCGUCCCCUCGGUAAUGGCGAAUGGGACCCA, the self-cleavage turned out to be 0.457.
The result for GGCUGGAAUGGUCCCAGCCUCCUCGCUGGCGCCGGCUGGGCAACAUUCCGAGGGGACCGUCCCCUCGGUAAUGGCGAAUGGGACCCA reads 0.104; that for GGCUGGCAUGGUCCCAGCCUCCUCGCUGGCGCCGGCUGGGAAACAUUCCGAGGGGACCGUCCCCUCGGUAAUGGCGAAUGGGACCCA, 0.434; that for GGCGGGCAUGGUCCCAGCCUCCUCGCUGGCGCCGGCUGGACAACAUUCCGAGGGGACCGUCCCCUCGGUAAUGGCGAAUGGGACCCA, 0.237.
In the case of GGCGGGCAUGGUCCCAGCCUCCUCGCUGGCGCCGGCUGGGCAACAUUCCGAGCGGACCGUCCCCUCGGUAAUGGCGAAUGGGACCCA, the self-cleavage stood at 0.213.
The result for GGCGGGCAUGGUCCCAGCCUCCUCGCUGGCGCCGGCUGGGCAACAUUCCGAGAGGACCGUCCCCUCGGUAAUGGCGAAUGGGACCCA reads 0.277; that for GGCUGGCGUGGUCCCAGCCUCCUCGCUGGCGCCGGCUGGGCAACAUUCCGAGGGGACCGUCCCCUCGGUAAUGGCGAAUGGGACCCA, 0.762; that for GGCUGGCUUGGUCCCAGCCUCCUCGCUGGCGCCGGCUGGGCAACAUUCCGAGGGGACCGUCCCCUCGGUAAUGGCGAAUGGGACCCA, 0.415.
In the case of GGCGGGCAUGGUCCCAGCCUCCUCGCUGGCGCCGGCCGGGCAACAUUCCGAGGGGACCGUCCCCUCGGUAAUGGCGAAUGGGACCCA, the self-cleavage came out at 0.375.
The result for GGCGGGCAUGGUCCCAGCCUCCUCGCUGGCGCCGGCUGGGCAACAUUCCGAGGGGACCGUCCCCUCGGUAAUGGCGAAUGGAACCCA reads 0.0674; that for GGCGGGCAUGGUCCCAGCCUCCUCGCUGGCGCCGGCUGGGCAACAUUCCGAGGGGACCGUCCCCUCGGUAAUGGCGAAUGGCACCCA, 0.
The same measure for GGCGGGCAUGGUCCCAGCCCCCUCGCUGGCGCCGGCUGGGCAACAUUCCGAGGGGACCGUCCCCUCGGUAAUGGCGAAUGGGACCCA: 0.0791; for GGCUGGCAUGGUCCCAGCCUCCUCGCUGGCGCCGGCUGGGCAACAUUCCGAGGGGACCGUCCCCUCGGUAAUGGCGAAUGGGACCUA: 0.889.
The same measure for GGCGGGCAUGGUCCCAGCCUCCUCGCUGGCGCCGGCUGGGCAACAUUCCGAGGAGACCGUCCCCUCGGUAAUGGCGAAUGGGACCCA: 0.288; for GGCGGGCAUGGUCCCAGCCUCCUCGCUGGCGCCGGCUGGGCAACAUUCCGAGGUGACCGUCCCCUCGGUAAUGGCGAAUGGGACCCA: 0.464; for GGCUGGCAUGGUCCCAGCCUCCUCGCUGGCGACGGCUGGGCAACAUUCCGAGGGGACCGUCCCCUCGGUAAUGGCGAAUGGGACCCA: 0.0906.
Take GGCUGGCAUGGUCCCAGCCUCCUCGCUGGCGCCGGCUGGGCAACAUUCCGAGGGGACCGUCCCCUCGGUCAUGGCGAAUGGGACCCA: the self-cleavage amounted to 0.482.
As to GGCUGGCAUGGUCCCAGCCUACUCGCUGGCGCCGGCUGGGCAACAUUCCGAGGGGACCGUCCCCUCGGUAAUGGCGAAUGGGACCCA, the self-cleavage is 0.
The same measure for GGCUGGCAUGGUCCCAGCCUGCUCGCUGGCGCCGGCUGGGCAACAUUCCGAGGGGACCGUCCCCUCGGUAAUGGCGAAUGGGACCCA: 0.
GGCGGGCAUGGUCCCAGCCUCCUCGCUGGCGCCGGCUGGGCAACAUUCCGAGGGGACCGUCCCCGCGGUAAUGGCGAAUGGGACCCA: the self-cleavage turned out to be 0.231.
In the case of GGCGGGCAUGGUCCCAGCCUCCGCGCUGGCGCCGGCUGGGCAACAUUCCGAGGGGACCGUCCCCUCGGUAAUGGCGAAUGGGACCCA, the self-cleavage came to 0.0386.
As for GGCGGGCAUGGUCCCACCCUCCUCGCUGGCGCCGGCUGGGCAACAUUCCGAGGGGACCGUCCCCUCGGUAAUGGCGAAUGGGACCCA, the self-cleavage was determined as 0.0354.
The same measure for GGCGGGCAUGGUCCCAACCUCCUCGCUGGCGCCGGCUGGGCAACAUUCCGAGGGGACCGUCCCCUCGGUAAUGGCGAAUGGGACCCA: 0.0791.
On to GGCUGGCAUGGUCCCAGCCUCCUCGAUGGCGCCGGCUGGGCAACAUUCCGAGGGGACCGUCCCCUCGGUAAUGGCGAAUGGGACCCA, for which the self-cleavage came out at 0.773.
For GGCGGGCAUGGUCCCAGCCUCCUCGCUGGCGCCGGCUGGGCAACAUUCCGAGGGGACCGUCCCCUCGGUAAUGACGAAUGGGACCCA, the self-cleavage turned out to be 0.0639.
On to GGCUGGCAUGGUCCCAGCCUCCUCGCUGGCGCCGGCUGGGCAAUAUUCCGAGGGGACCGUCCCCUCGGUAAUGGCGAAUGGGACCCA, for which the self-cleavage was 0.394.
The result for GGCUGGCAUGGUCCCAGCCUCCUCGCUGGCGCCGGCUGGGCAAAAUUCCGAGGGGACCGUCCCCUCGGUAAUGGCGAAUGGGACCCA reads 0.578; that for GGCGGGCAUGGUCCCAGCCUCCUCGCUGGCGCCGGCUGGGCAACAUUCCGAGGGGACCGUCCCCUCAGUAAUGGCGAAUGGGACCCA, 0.437.
The same measure for GGCGGGCAUGGUCCCAGCCUCCUCGCUGGCGCCGGCUGGGCAACAUUCCGAGGGGACCGUCCCCUCUGUAAUGGCGAAUGGGACCCA: 0.227; for GGCGGGCAUGGUCCCAGCCUCCUCGCUGGCGCCGGCUGGGCAACAUUCCGAGGGGACCUUCCCCUCGGUAAUGGCGAAUGGGACCCA: 0.475; for GGCGGGCAUGGACCCAGCCUCCUCGCUGGCGCCGGCUGGGCAACAUUCCGAGGGGACCGUCCCCUCGGUAAUGGCGAAUGGGACCCA: 0.
Take GGCGGGCAUGGUCCCAGCCUCCUCGCUGGCGCCUGCUGGGCAACAUUCCGAGGGGACCGUCCCCUCGGUAAUGGCGAAUGGGACCCA: the self-cleavage came to 0.864.
The result for GGCGGGCAUGGUCCCAGCCUCCUCGCUGGCGCCGGCUGGGCAACAUUCCGAGGGGACCGUCCCCUCGGUAAUCGCGAAUGGGACCCA reads 0.0361; that for GGCUGGCAUGGUCCCAGCCUCCUCGCUGGCGCCGGCUGGGCAACAUUCCGAGGGGACCGUCACCUCGGUAAUGGCGAAUGGGACCCA, 1.06; that for GGCUGGCAUGGUCCCAGCCUCCUCGCUGGCGCCGGCUGGGCAACAUUCCGAGGGGACCGUCCCCUCGGUAGUGGCGAAUGGGACCCA, 0.643.
For GGCUGGCAUGGUCCCAGCCUCCUCGCUGGCGCCGGCUGGGCAACAUUCCGAGGGGUCCGUCCCCUCGGUAAUGGCGAAUGGGACCCA, the self-cleavage is 0.898.
Turning to GGCUGGCAUGGUCCCAGCCUCCUCGCUGGCGCCGGCUGGGCAACAUUCCGAGGGGGCCGUCCCCUCGGUAAUGGCGAAUGGGACCCA, the self-cleavage came out at 0.665.
The same measure for GGCUGGCAUGGUCCCAGCCUCCUCGCUGGCGCAGGCUGGGCAACAUUCCGAGGGGACCGUCCCCUCGGUAAUGGCGAAUGGGACCCA: 0.0845; for GGCGGGCAUGGUCCCAGCCUCCUCGCUGGCGCCGGCUGGGCAACAUUCCUAGGGGACCGUCCCCUCGGUAAUGGCGAAUGGGACCCA: 0.527.
Turning to GGCUGGCAUGGUCCCUGCCUCCUCGCUGGCGCCGGCUGGGCAACAUUCCGAGGGGACCGUCCCCUCGGUAAUGGCGAAUGGGACCCA, the self-cleavage turned out to be 0.462.
The same measure for GGCUGGCAUGGUCCCGGCCUCCUCGCUGGCGCCGGCUGGGCAACAUUCCGAGGGGACCGUCCCCUCGGUAAUGGCGAAUGGGACCCA: 0.862.
The result for GGCUGGCAUGGUCCCAGCCUCCUCGCUGGCGCCGGCUGGGCAACAUUCCGAGGGGACCGUCCCCUCGGUAAUGGCGAAUGGGAGCCA reads 0.19.
In the case of GGCUGGCAUGGUCCCACCCUCCUCGCUGGCGCCGGCUGGGCAACAUUCCGAGGGGACCGUCCCCUCGGUAAUGGCGAAUGGGACCCA, the self-cleavage was 0.147.
The same measure for GGCUGGCAUGGUCCCAGCCUCCUCUCUGGCGCCGGCUGGGCAACAUUCCGAGGGGACCGUCCCCUCGGUAAUGGCGAAUGGGACCCA: 0.0287.
For GGCUGGCAUUGUCCCAGCCUCCUCGCUGGCGCCGGCUGGGCAACAUUCCGAGGGGACCGUCCCCUCGGUAAUGGCGAAUGGGACCCA, the self-cleavage is 0.163.
In the case of GGCUGGCAUGGUCCCAGCCUCCUCGCUGGCGCCGGCUGGGCAACAUUCCGAGGGGACCGUCCCCUCGGUAAUGGCGAAUGGGACCCU, the self-cleavage amounted to 0.817.
Take GGCUGGCAUGGUCCCAGCCUCCUCGCUGGCGCCGGCUGGGCAACAUUCCGAGGGGACCGUCCCCUCGGUAAUGGCGAAUGGGACCCG: the self-cleavage turned out to be 0.599.
Turning to GGCUGGCAUGGUCCCAGCCUCCUCGCUGGCGCCGGCUGGGCAACAUUCCGAGGGGACCGUCCCCUCGGUAAUGGCGAAUGGGUCCCA, the self-cleavage is 0.115.
The same measure for GGCUGGCAUGGUCCCAGCCUCCUCGCUGGGGCCGGCUGGGCAACAUUCCGAGGGGACCGUCCCCUCGGUAAUGGCGAAUGGGACCCA: 0.
Consider GGCUGGCAUGGUCCCAGCCUCCUCGCUGGAGCCGGCUGGGCAACAUUCCGAGGGGACCGUCCCCUCGGUAAUGGCGAAUGGGACCCA, for which the self-cleavage stood at 0.133.
The result for GGCUGGCAUGGUCCCAGCCUCCUCGCUGGCGCCGGCUGGGCAACAUUCCGAGGGGACCGUCCCCUCGGUAAUGGCGACUGGGACCCA reads 0.0378; that for GGCUGGCAUGGUCCCAGCCUCCUCGCUGGCGCCGGCUGGGCAACAUUCCGAGGGGACCGUCCCCUCGGUAAUGGUGAAUGGGACCCA, 0.155; that for GGCUGGCAUGGUCCCAGCCUCCUCGCUGGCGCCGGCUGGGCAACAUUCCGAGGGGACCGUCCCCUCGGUAAUGGAGAAUGGGACCCA, 0.128.
The same measure for GGCUGGCAUGGUCCCAGCCUCUUCGCUGGCGCCGGCUGGGCAACAUUCCGAGGGGACCGUCCCCUCGGUAAUGGCGAAUGGGACCCA: 0.259; for GGCGGGCAUGGUCCCAGCCUCCUCGCUGGCGCCGGCUGGGCAACAUACCGAGGGGACCGUCCCCUCGGUAAUGGCGAAUGGGACCCA: 0.346; for GGCUGGCAUGGUCCGAGCCUCCUCGCUGGCGCCGGCUGGGCAACAUUCCGAGGGGACCGUCCCCUCGGUAAUGGCGAAUGGGACCCA: 0.262.

Values taken from the RNAGym collection of RNA variant scans (doi:10.7554/elife.80360).
